The values that follow come from the RNAGym collection of RNA variant scans (doi:10.7554/elife.90254).

The labels stand for the following.
B1: LINE1-full (parent)
chain: UACGUAGGUGGUUUUCCCCUGAUAGUGCUAAGGGGGCCUGGAAGUUUGGACUGGGCAGAGCUCAACACAGCGUGGCAAAGUGGCUGUGGCUAGACUGCCUCUCUGGAUUCCUCGUCACUCAGCAGGGCAUCUCUGAGAGAAAUGCC

Variants of B1 are the subject of this series. Briefly: self-cleavage, relative activity (ratio to wild type); higher = more cleavage; in vitro, sequencing; the parent is a self-cleaving ribozyme.
As to G137A, the self-cleavage was 1.19.
The value for G137U was 1.31.
To A138G C145A belongs 2.76; to C131U A138U, 1.27; to G135A C145U, 1.46.
The value for U134A A140C was 0.55.
Regarding U134A A140G, the self-cleavage was determined as 0.53.
With U134A A140U, the self-cleavage came out at 0.85.
The value for A124G C145A was 1.22; that for A129C A136G was 1.61; that for U134G A136U was 1.72.
The value for G137A A140G was 1.4.
A140U G144A: the self-cleavage turned out to be 1.39.
To C131G A138G belongs 2.49; to G127U U130C, 1.77; to U132C A140U, 1.43.
The value for U132C A140G was 1.65; that for A136U A142C was 1.43; that for A141C was 1.04.
The value for A141U was 1.04; that for A141G was 1.1; that for A129C U130A was 1.47.
For A124G C128A, the self-cleavage turned out to be 0.46.
The value for A124G C128U was 0.53; that for A136U A141G was 1.3; that for G126C G137A was 1.45.
With A140G A142U, the self-cleavage was 0.84.
The value for U130A A136G was 1.46.
To U130A A136U belongs 1.18; to U130G A140G, 1.1; to A124U, 1.4.
To U134A A136G belongs 0.53; to U134A A136U, 1.27; to U143C C145U, 1.06.
With G126A U134C, the self-cleavage was 1.58.
The value for A138U A142G was 0.93; that for A138U A141G was 1.17; that for U134C C145U was 1.1.
To G127A U134G belongs 1.1; to U132A A141G, 1.58; to U130C A136U, 1.63.
To A124U A129U belongs 0.9; to C131A U134C, 1.53; to A138G U143C, 1.54.
Take A138G U143G: the self-cleavage turned out to be 1.34.
To A129C A140C belongs 1.29; to A129C A140U, 1.75.
Regarding A129C A140G, the self-cleavage was 1.67.
The value for G126A A141G was 1.34.
The value for G126A A141U was 0.67; that for U134A A141G was 1.12.
On to A136U A140U, for which the self-cleavage turned out to be 1.65.
Consider A136U A140G, for which the self-cleavage came out at 1.7.
The value for U132A was 1.32; that for U132G was 1.52.
To U132C belongs 1.35; to A136G G144A, 0.88.
Consider G127C A138G, for which the self-cleavage is 1.31.
The value for A129U A136U was 1.42; that for A129U A136G was 1.
The value for A124U G127A was 0.9.
For the variant U134G A141G, the self-cleavage was found to be 1.44.
To G125C belongs 1.59; to G125A, 1.19; to G125U, 1.23.
To C128U belongs 1.39; to C128G, 0.98.
For the variant C128A, the self-cleavage was 0.7.
To U134C G139A belongs 1.29; to G125C U134C, 1.58; to U130C A142C, 1.76.
The value for G127A A140G was 0.9; that for A138G A142C was 0.16; that for G135U was 1.22.
G135C: the self-cleavage amounted to 1.55.
With G135A, the self-cleavage was determined as 1.27.
Regarding A136U A138G, the self-cleavage was found to be 1.55.
To A129G G139A belongs 1.43.
To A138C A140G belongs 0.07; to A142G G144A, 1.44.
To A136U U143A belongs 1.41; to U134C A141G, 1.41; to A124G A138G, 1.36.
As for A140C U143C, the self-cleavage came to 1.81.
The value for A129G A138G was 1.44; that for G127C U143C was 1.61; that for A141G U143A was 1.29.
A124G U132C: the self-cleavage turned out to be 0.82.
Consider A124G U132A, for which the self-cleavage is 0.87.
To G125A U132C belongs 1.55; to C128U A140G, 0.89.
The value for C128U A140U was 1.36.
To G125U U134G belongs 1.26; to G125U U134A, 1.87; to C146A, 1.45.
Take C146U: the self-cleavage amounted to 1.29.
In the case of C131U A141G, the self-cleavage was 1.51.
The value for U130C U134G was 0.54.
U130C U134C: the self-cleavage is 1.51.
The value for A141G A142C was 0.39; that for A138U A140U was 0.84; that for A141C U143C was 1.67.
To A129C A138U belongs 0.57.
To A129U A142G belongs 1.43; to A124G G126A, 1.22; to U132A A142G, 1.41.
For the variant U130C U143A, the self-cleavage was found to be 1.51.
The value for U130C U143C was 1.53; that for U134C G135A was 2.1; that for C133U A138G was 1.32.
The value for C133U A138U was 2.36; that for G144C C145U was 0.99; that for G127A U143C was 2.07.
Take A136G C145U: the self-cleavage was found to be 1.45.
To A136C C145A belongs 1.72; to U130C U132C, 1.29; to C131G, 1.54.
The value for C131A was 1.48; that for C131U was 1.41; that for A129G U143A was 1.77.
The value for A129G U143C was 1.59.
As for A124G G139U, the self-cleavage was 1.91.
The value for A141C A142G was 1.26.
The value for A124G A140G was 0.24; that for A136G C146U was 1.91.
The value for U134C A138G was 1.4.
A138G C146A: the self-cleavage is 1.17.
To U132C A141G belongs 1.46.
To A124U C145U belongs 1.27; to G126U U143C, 1.33.
The value for U143A was 1.12; that for U143C was 1.18; that for U143G was 1.11.
As to U130A A142C, the self-cleavage stood at 0.79.
To U134C A140G belongs 1.58; to A136U C146U, 1.58; to G126A A140U, 1.67.
The value for A142G C146U was 1.49.
As to G125U U132C, the self-cleavage was found to be 1.47.
As for C131A A140G, the self-cleavage turned out to be 1.94.
The value for G126A G127U was 1.44.
To A129U A138G belongs 0.93; to A129U A138U, 1.47.
Take U134G A140G: the self-cleavage was found to be 1.03.
As to A129G U134C, the self-cleavage is 1.43.
On to A129G U134A, for which the self-cleavage is 0.89.
To A138U belongs 1.1.
To A138C belongs 0.76; to A138G, 1.21.
In the case of A140U U143A, the self-cleavage is 1.41.
A140U U143C: the self-cleavage came out at 1.54.
To A141U U143C belongs 0.28; to A124U C128U, 1.21; to A136G A138U, 1.98.
To A136G A138G belongs 1.6; to G126A A129U, 2.47; to G127A G139C, 1.41.
To G139A A142G belongs 1.15; to U132A A138G, 1.39.
As for C128U U130C, the self-cleavage amounted to 1.35.
Regarding U130A C133U, the self-cleavage turned out to be 2.3.
In the case of C128A A141G, the self-cleavage was found to be 1.01.
To A129U C131U belongs 1.78; to G139A A140G, 0.19; to A136G U143A, 1.34.
The value for U132C C146U was 1.51; that for A124G G125U was 1.27.
